Literature values in patent US6774099B1, “Dishwashing detergent compositions containing mixtures or crystallinity-disrupted surfactants” (The Procter & Gamble Company, priority 1999, dated 2004).

Details: enzymes compared at 0.075 to 2.5 mg protein per liter

B1: D96L: D96L lipolytic enzyme variant of the native lipase derived from Humicola lanuginosa (protein, UniProt O59952 23-291, looked up, variant D96L)
Lipase: EVSQDLFNQFNLFAQYSAAAYCGKNNDAPAGTNITCTGNACPEVEKADATFLYSFEDSGVGDVTGFLALDNTNKLIVLSFRGSRSIENWIGNLNFLLKEINDICSGCRGHDGFTSSWRSVADTLRQKVEDAVREHPDYRVVFTGHSLGGALATVAGADLRGNGYDIDVFSYGAPRVGNRAFAEFLTVQTGGTLYRITHTNDIVPRLPPREFGYSHSSPEYWIKSGTLVPVTRNDIVKIEGIDATGGNNQPNIPDIPAHLWYFGLIGTCL
  lard stain removal efficiency, factor over the wild-type lipase: 4.4
